Where a chain is given by its changes, count along the chain named. In names and notes the source's numbering stands.
B1: RsbS (Bacillus subtilis), full length, residues 1-121, tag removed (natural protein, Bacillus subtilis strain 168, UniProt P42410 1-121, looked up)
chain: MRHPKIPILKLYNCLLVSIQWELDDQTALTFQEDLLNKIYETGANGVVIDLTSVDMIDSFIAKVLGDVITMSKLMGAKVVLTGIQPAVAVTLIELGIALEEIETALDLEQGLETLKRELGE
modifications: phosphoserine at 59 (seen in the crystal structure and by peptide mass fingerprinting; likely phosphorylated during expression in E. coli)
notes: RsbS, Bacillus subtilis strain 168 (ATCC 23857), full length, residues 1-121; only a STAS domain; Dimer in solution by SEC-MALS; 60 monomers form an icosahedron in the crystal; The model holds residues 4-119 (chain A) or 5-119 (other chains); A selenomethionine-labelled form was used for phasing; also called native RsbS; Bs RsbS; source: E. coli BL21 Star (DE3), purified (IMAC, TEV cleavage, …)
B2: RsbS S59A mutant (natural protein, Bacillus subtilis)
chain: B1 chain with S59A
notes: RsbS, Bacillus subtilis, with S59A, which restricts phosphorylation; the construct is not described
B3: RsbRA (Bacillus subtilis), full length, residues 1-274, native (pET-22b), of the RsbRA-RsbS complex (natural protein, Bacillus subtilis strain 168, UniProt P42409 1-274, looked up)
chain: MMSNQTVYQFIAENQNELLQLWTDTLKELSEQESYQLTDQVYENISKEYIDILLLSVKDENAAESQISELALRAVQIGLSMKFLATALAEFWKRLYTKMNDKRLPDQESTELIWQIDRFFSPINTEIFNQYSISWEKTVSLQKIALQELSAPLIPVFENITVMPLVGTIDTERAKRIMENLLNGVVKHRSQVVLIDITGVPVVDTMVAHHIIQASEAVRLVGAKCLLAGIRPEIAQTIVNLGIDLSQVITKNTLQKGIQTALEMTDRKIVSLGE
notes: RsbRA, Bacillus subtilis strain 168 (ATCC 23857), full length, residues 1-274; N-terminal nonheme globin domain and C-terminal STAS domain; also called native RsbRA; source: E. coli BL21 Star (DE3), co-purified with 6xHis-thioredoxin-RsbS (IMAC, TEV cleavage, SEC)

How the values were obtained:
[1] = biological target: B3; assay: cryo-EM structure; RsbRA-RsbS complex at 0.5 mg/ml in 20 mM HEPES pH 7.5, 50 mM NaCl, 0.2 mM TCEP, 5% glycerol; single-particle reconstruction with C1, D2 or I restraints; conditions: both partners purified
[2] = biological target: the molecule itself; assay: SEC-MALS; 200 ul of 1 mg/ml RsbS on a Superdex 200 analytical column; miniDAWN TREOS II MALS and Optilab rEX detectors
[3] = biological target: the molecule itself; assay: crystal structure; RsbS 10 mg/ml; micro-batch at 20 C; 35% MPD, 100 mM MES/sodium hydroxide pH 6.0, 200 mM lithium sulfate; space group I23, five monomers in the asymmetric unit
[4] = biological target: the molecule itself; assay: cryo-EM structure; RsbRA-RsbS complex at 0.5 mg/ml in 20 mM HEPES pH 7.5, 50 mM NaCl, 0.2 mM TCEP, 5% glycerol; single-particle reconstruction with C1, D2 or I restraints

Binder | binding result [1] | stoichiometry N [2] | stoichiometry N [3] | binding result [4]
B1 | binds | 2 | 60 | 
B2 |  | 2 |  | 
B3 |  |  |  | binds
